From article PMC7817217 come the findings set out here.

The target of this assay is bACE2-Rm fused with eGFP, expressed on the surface of HEK293T cells (Rhinolophus macrotis). In words: flow cytometry on cells.

With “SARS-CoV-2 spike protein receptor binding domain (RBD) (from UniProt P0DTC2 319-541) (domain or fragment)”, the percent of cells stained positive turned out to be 34.5%.
